From IntAct's records for PubMed 20007317

B1: SAGA complex subunit SGF11 (Saccharomyces cerevisiae), Q03067 (parent)
chain: MTEETITIDSISNGILNNLLTTLIQDIVARETTQQQLLKTRYPDLRSYYFDPNGSLDINGLQKQQESSQYIHCENCGRDVSANRLAAHLQRCLSRGARR
partner: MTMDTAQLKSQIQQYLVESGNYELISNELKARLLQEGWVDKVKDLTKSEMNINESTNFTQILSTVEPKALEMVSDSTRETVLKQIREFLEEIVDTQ

Variants of: B1
Settings: with sus1_yeast SUS1, Q6WNK7

Effect of a mutation on the interaction, decreasing interaction:
I15A
N18A
L19A
